Data on 14 molecules can be found in patent US20180155451A1 (published 2018).

The target in test [1] is T1, FcγRIa (human, UniProt P12314 16-292).
T1 construct: extracellular domain; also called FcgRI; FcgRIa
The experiment in a line: SPR (Biacore), relative to GpH7-A5/GpH7-B3/GpL16-k0 = 100.

Another test has as its target T2, FcγRIIb (human, UniProt P31994 43-217).
T2 construct: extracellular domain; also called FcgRIIb; 2b
T2 sequence (looked up): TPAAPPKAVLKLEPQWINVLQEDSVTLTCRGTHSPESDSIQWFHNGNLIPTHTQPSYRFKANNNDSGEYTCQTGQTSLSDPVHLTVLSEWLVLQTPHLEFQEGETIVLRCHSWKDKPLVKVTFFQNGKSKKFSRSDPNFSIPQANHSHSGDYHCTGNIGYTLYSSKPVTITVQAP
The test is described as above.

The target of test [2] is T1, FcγRIa. The test is described as follows: SPR (Biacore); He/Con_1a (FcgRIa) divided by He/Con_2b (FcgRIIb). On the procedure: The heterodimerized antibodies He Abs in which one of the H chains was introduced with an alteration were assayed for their binding activities to each activating FcγR and inhibitory FcγR according to the method described in Example 4. […] The activating FcγRs in FIGS. 26, 27, 28, and 29 are FcγRIa, FcγRIIa (R), FcγRIIa (H), and FcγRIIIa, respectively.
Analysis of interaction between objective antibody and the FcγR was carried out using Biacore T100 (GE Healthcare). HBS-EP+ (GE Healthcare) was used as the running buffer, and the measurement temperature was set to 25° C. Chips produced by immobilizing the antigen peptide by the amine coupling method to a Series S Sencor Chip CM5 (GE Healthcare), or alternatively, chips produced by allowing preliminarily biotinylated antigen peptides to interact with and immobilize onto a Series S Sensor Chip SA (certified) (GE Healthcare) were used. Antibodies of interest were captured onto an antigen peptide-immobilized chip, and allowed to interact to each FcγR diluted with running buffer. To regenerate and repeatedly use the chip, the antibodies captured on the chip were washed off by reacting 10 mM glycine-HCl, pH 1.5.

T1 sequence (P12314 16-292): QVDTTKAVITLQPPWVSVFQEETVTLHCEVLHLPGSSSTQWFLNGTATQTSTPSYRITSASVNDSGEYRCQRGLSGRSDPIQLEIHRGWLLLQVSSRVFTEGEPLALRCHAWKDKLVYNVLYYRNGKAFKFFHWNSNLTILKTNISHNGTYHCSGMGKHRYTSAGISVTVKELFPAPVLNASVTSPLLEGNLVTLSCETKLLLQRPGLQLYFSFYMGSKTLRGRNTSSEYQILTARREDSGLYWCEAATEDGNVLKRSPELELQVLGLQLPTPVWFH

B1: GpH7-A5/GpH7-B3 variant A327_06M/GpL16-k0 (antibody, human IgG1, kappa)
heavy 1: not shown
heavy 2: not shown
light: DIVMTQSPLSLPVTPGEPASISCQASESLVHSNRNTYLHWYLQKPGQSPQLLIYKVSNRFSGVPDRFSGSGSGTDFTLKISRVEAEDVGVYYCSQNTHVPPTFGQGTKVEIERTVAAPSVFIFPPSDEQLKSGTASVVCLLNNFYPREAKVQWKVDNALQSGNSQESVTEQDSKDSTYSLSSTLTLSKADYEKHKVYACEVTHQGLSSPVTKSFNRGEC
notes: heterodimerized IgG1, one H chain mutated; also called He Ab
Consider B1, for which the “He/Con_1a (Ia binding)” value with FcγRIa [1] is 103 relative (control = 100). Moreover, in the test with FcγRIIb, the “He/Con_2b (IIb binding)” value was 59.5 relative (control = 100). For the same molecule, in the test with FcγRIa [2], the “Ia/IIb He_1a/2b” value was 1.74.

B2: GpH7-A5/GpH7-B3 variant N325_11K/GpL16-k0 (antibody, human IgG1, kappa)
heavy 1: not shown
heavy 2: not shown
light: B1 light
notes: as for B1
Turning to B2, the “He/Con_1a (Ia binding)” value in the test with FcγRIa [1] is 80.9 relative (control = 100). For the same molecule, in the test with FcγRIIb, the “He/Con_2b (IIb binding)” value was 10.4 relative (control = 100). Further, the “Ia/IIb He_1a/2b” value with FcγRIa [2] is 7.81.

B3: GpH7-A5/GpH7-B3 variant N325_05P/GpL16-k0 (antibody, human IgG1, kappa)
heavy 1: not shown
heavy 2: not shown
light: B1 light
notes: as for B1
As for B3, the “He/Con_1a (Ia binding)” value with FcγRIa [1] was 88.8 relative (control = 100). For the same molecule, the “He/Con_2b (IIb binding)” value with FcγRIIb was 26 relative (control = 100). In addition, the “Ia/IIb He_1a/2b” value with FcγRIa [2] is 3.42.

B4: GpH7-A5/GpH7-B3 variant N325_12R/GpL16-k0 (antibody, human IgG1, kappa)
heavy 1: not shown
heavy 2: not shown
light: B1 light
notes: as for B1
With B4, in the test with FcγRIa [1], the “He/Con_1a (Ia binding)” value is 84.2 relative (control = 100). Besides, in the test with FcγRIIb, the “He/Con_2b (IIb binding)” value was 19.1 relative (control = 100). For the same molecule, the “Ia/IIb He_1a/2b” value with FcγRIa [2] was determined as 4.41.

B5: GpH7-A5/GpH7-B3 variant N325_02A/GpL16-k0 (antibody, human IgG1, kappa)
heavy 1: not shown
heavy 2: not shown
light: B1 light
notes: as for B1
On to B5, for which the “He/Con_1a (Ia binding)” value with FcγRIa [1] is 96.8 relative (control = 100). In the test with FcγRIIb, the “He/Con_2b (IIb binding)” value was 64.4 relative (control = 100). In addition, the “Ia/IIb He_1a/2b” value with FcγRIa [2] was determined as 1.5.

B6: GpH7-A5/GpH7-B3 variant A327_13S/GpL16-k0 (antibody, human IgG1, kappa)
heavy 1: not shown
heavy 2: not shown
light: B1 light
notes: as for B1
As for B6, the “He/Con_1a (Ia binding)” value in the test with FcγRIa [1] was 102 relative (control = 100). For the same molecule, the “He/Con_2b (IIb binding)” value with FcγRIIb was 79.5 relative (control = 100). The “Ia/IIb He_1a/2b” value with FcγRIa [2] turned out to be 1.29.

B7: GpH7-A5/GpH7-B3 variant N325_19Q/GpL16-k0 (antibody, human IgG1, kappa)
heavy 1: not shown
heavy 2: not shown
light: B1 light
notes: as for B1
Regarding B7, the “He/Con_1a (Ia binding)” value with FcγRIa [1] is 99.1 relative (control = 100). For the same molecule, in the test with FcγRIIb, the “He/Con_2b (IIb binding)” value was 69.1 relative (control = 100). In addition, in the test with FcγRIa [2], the “Ia/IIb He_1a/2b” value turned out to be 1.43.

B8: GpH7-A5/GpH7-B3 variant A327_11K/GpL16-k0 (antibody, human IgG1, kappa)
heavy 1: not shown
heavy 2: not shown
light: B1 light
notes: as for B1
As for B8, the “He/Con_1a (Ia binding)” value with FcγRIa [1] was 86.1 relative (control = 100). Besides, the “He/Con_2b (IIb binding)” value with FcγRIIb is 12.5 relative (control = 100). Besides, the “Ia/IIb He_1a/2b” value with FcγRIa [2] was found to be 6.87.

B9: GpH7-A5/GpH7-B3 variant S298_09D/GpL16-k0 (antibody, human IgG1, kappa)
heavy 1: not shown
heavy 2: not shown
light: B1 light
notes: as for B1
For B9, the “He/Con_1a (Ia binding)” value with FcγRIa [1] was 106 relative (control = 100). The “He/Con_2b (IIb binding)” value with FcγRIIb is 48.3 relative (control = 100). Moreover, in the test with FcγRIa [2], the “Ia/IIb He_1a/2b” value came to 2.19.

B10: GpH7-A5/GpH7-B3 variant A327_15Y/GpL16-k0 (antibody, human IgG1, kappa)
heavy 1: not shown
heavy 2: not shown
light: B1 light
notes: as for B1
B10: the “He/Con_1a (Ia binding)” value with FcγRIa [1] is 96.3 relative (control = 100). Further, in the test with FcγRIIb, the “He/Con_2b (IIb binding)” value is 60.8 relative (control = 100). The “Ia/IIb He_1a/2b” value with FcγRIa [2] turned out to be 1.58.

B11: GpH7-A5/GpH7-B3 variant A327_19Q/GpL16-k0 (antibody, human IgG1, kappa)
heavy 1: not shown
heavy 2: not shown
light: B1 light
notes: as for B1
Take B11: the “He/Con_1a (Ia binding)” value with FcγRIa [1] is 96.2 relative (control = 100). In addition, the “He/Con_2b (IIb binding)” value with FcγRIIb is 54.2 relative (control = 100). Besides, the “Ia/IIb He_1a/2b” value with FcγRIa [2] amounted to 1.78.

B12: GpH7-A5/GpH7-B3 variant A327_16H/GpL16-k0 (antibody, human IgG1, kappa)
heavy 1: not shown
heavy 2: not shown
light: B1 light
notes: as for B1
On to B12, for which the “He/Con_1a (Ia binding)” value with FcγRIa [1] is 96.5 relative (control = 100). For the same molecule, the “He/Con_2b (IIb binding)” value with FcγRIIb was 63.5 relative (control = 100). The “Ia/IIb He_1a/2b” value with FcγRIa [2] stood at 1.52.

B13: GpH7-A5/GpH7-B3 variant N325_16H/GpL16-k0 (antibody, human IgG1, kappa)
heavy 1: not shown
heavy 2: not shown
light: B1 light
notes: as for B1
Regarding B13, the “He/Con_1a (Ia binding)” value with FcγRIa [1] is 95.1 relative (control = 100). Moreover, the “He/Con_2b (IIb binding)” value in the test with FcγRIIb was 70.1 relative (control = 100). In the test with FcγRIa [2], the “Ia/IIb He_1a/2b” value was determined as 1.36.

B14: GpH7-A5/GpH7-B3 variant A327_08L/GpL16-k0 (antibody, human IgG1, kappa)
heavy 1: not shown
heavy 2: not shown
light: B1 light
notes: as for B1
B14: the “He/Con_1a (Ia binding)” value in the test with FcγRIa [1] is 98.6 relative (control = 100). Besides, in the test with FcγRIIb, the “He/Con_2b (IIb binding)” value is 63.1 relative (control = 100). For the same molecule, the “Ia/IIb He_1a/2b” value in the test with FcγRIa [2] worked out at 1.56.
